Results: US20260193366A1 (APOGEE THERAPEUTICS, published 2026)

T1: hIL-4Rα on cells (human, UniProt P24394 26-825)
T1 sequence: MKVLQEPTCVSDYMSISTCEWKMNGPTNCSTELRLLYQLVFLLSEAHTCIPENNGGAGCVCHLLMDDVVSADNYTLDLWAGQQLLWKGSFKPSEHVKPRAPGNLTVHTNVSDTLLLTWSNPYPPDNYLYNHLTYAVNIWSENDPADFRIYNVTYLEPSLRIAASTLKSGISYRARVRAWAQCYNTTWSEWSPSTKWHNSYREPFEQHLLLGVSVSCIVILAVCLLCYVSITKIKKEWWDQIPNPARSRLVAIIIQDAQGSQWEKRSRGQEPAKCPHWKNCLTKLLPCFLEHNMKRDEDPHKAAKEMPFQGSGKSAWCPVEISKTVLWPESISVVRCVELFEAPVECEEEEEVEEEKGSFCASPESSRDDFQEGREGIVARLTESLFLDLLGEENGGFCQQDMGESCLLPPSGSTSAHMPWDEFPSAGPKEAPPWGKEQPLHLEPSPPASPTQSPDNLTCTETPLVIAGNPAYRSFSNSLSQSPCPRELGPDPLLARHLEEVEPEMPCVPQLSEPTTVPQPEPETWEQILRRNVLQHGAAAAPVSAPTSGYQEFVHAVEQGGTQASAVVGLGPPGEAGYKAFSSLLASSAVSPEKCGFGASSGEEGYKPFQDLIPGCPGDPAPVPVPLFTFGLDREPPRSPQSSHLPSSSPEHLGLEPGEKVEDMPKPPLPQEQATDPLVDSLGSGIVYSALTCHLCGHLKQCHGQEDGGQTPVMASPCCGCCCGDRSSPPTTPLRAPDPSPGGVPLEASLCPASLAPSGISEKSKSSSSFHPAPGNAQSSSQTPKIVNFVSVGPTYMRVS

T2: human IL-4Rα (human, UniProt P24394 26-232)
T2 construct: also called Hu IL-4Rα; hIL-4Rα
T2 sequence: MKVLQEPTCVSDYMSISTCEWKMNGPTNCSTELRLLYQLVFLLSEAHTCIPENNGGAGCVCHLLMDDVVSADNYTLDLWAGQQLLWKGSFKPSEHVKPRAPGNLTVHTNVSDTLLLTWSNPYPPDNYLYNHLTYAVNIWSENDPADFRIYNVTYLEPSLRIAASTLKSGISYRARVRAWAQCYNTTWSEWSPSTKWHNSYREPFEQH

T3: cynomolgus monkey IL-4Rα (cynomolgus monkey, UniProt P24394 26-231 (human entry), limits assumed)
T3 construct: also called Cyno IL-4Rα; cyIL-4Rα
T3 chain: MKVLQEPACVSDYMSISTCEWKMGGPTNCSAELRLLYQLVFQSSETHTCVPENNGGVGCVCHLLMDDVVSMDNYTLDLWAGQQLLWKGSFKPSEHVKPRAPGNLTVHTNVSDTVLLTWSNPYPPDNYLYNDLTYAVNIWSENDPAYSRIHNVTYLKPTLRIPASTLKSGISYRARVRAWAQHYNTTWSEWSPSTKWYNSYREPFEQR


Experiments:
[1] = target: T1, hIL-4Rα on cells; test: cell-based or functional assay
[2] = target: T2, human IL-4Rα; test: KinExA
Method: Binding affinity (KD) of exemplary antibodies to human IL-4Rα was determined using the Kinetic Exclusion Assay (KinExA). Briefly, antibody and recombinant human IL-4Rα were equilibrated in solution. […] Samples were incubated for a time period ranging from 3.5 hours to 340 hours, to fully reach equilibrium. Once samples reached equilibrium, azlactone beads previously coated with recombinant human IL-4Rα were used to capture any free antibody from the equilibrated solution. […] The KinExA 4000 instrument was used to capture fluorescent signal and convert to a voltage signal that is directly proportional to the amount of free antibody in all the equilibrated samples, allowing for the determination of the apparent affinity of the antibody.

[3] = target: T2, human IL-4Rα; test: SPR, Carterra LSA;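 further: antibodies captured on an anti-human Fc sensor chip, antigen injected at several concentrations, association and dissociation rates fitted with a 1:1 Langmuir model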
Method: (§1) Binding affinity (KD) of antibodies to human and cynomolgus monkey IL-4Rα was determined through surface plasmon resonance (SPR) using a Carterra LSA. Briefly, an HC30M sensor chip that was previously functionalized with a polyclonal mixture of goat anti-human Fc antibody and used to capture purified antibodies at a level between 100-1000 RLU. […] Regeneration of the chip between different concentrations of antigen was performed with 200 mM phosphoric acid and antibody was captured again as previously described. Association and dissociation rate constants were subsequently determined through fitting to a 1:1 Langmuir binding model using the Kinetics Software from Carterra from which a KD value was derived.

[4] = target: T3, cynomolgus monkey IL-4Rα; test: SPR, Carterra LSA;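 further: antibodies captured on an anti-human Fc sensor chip, antigen injected at several concentrations, association and dissociation rates fitted with a 1:1 Langmuir model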
Method: as §1

[5] = target: T1, hIL-4Rα on cells; test: cell-based or functional assay; remark: listed apart in the source
[6] = target: T1, hIL-4Rα on cells; test: FACS on HEK293 cells, competitor biotin-hIL-4;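 further: HEK293 cells stably co-expressing hIL-13Rα and hIL-4Rα, stained for 1 h at 4 °C, read-out as mean fluorescence intensity by flow cytometry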
Method: (§2) Briefly, HEK293 previously transduced to stably express both hIL-13Rα and hIL-4Rα were cultured and harvested. Cells were seeded at 200,000 cells in 100 uL per well. Cells were washed and the supernatant discarded. […] The cells were stained in this mixture at 4° C. for 1 hour. […] Cells were incubated 4° C. for 1 hour, protected from light. Cells were then washed and the MFI of cells in each well were recorded by FACS using a BD FACSCanto II. Subsequent data were analyzed using GraphPad Prism.

[7] = target: T1, hIL-4Rα on cells; test: cell-based or functional assay; remark: listed apart in the source
[8] = target: T1, hIL-4Rα on cells; test: FACS on HEK293 cells, competitor biotin-hIL-13;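 further: stably transduced cells co-expressing both receptor chains, stained cold, with cell-bound signal read as mean fluorescence intensity by flow cytometry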
Method: as §2

Binder | Relative Inhibition of IL-4 induced TARC IC50 [1] | Relative Inhibition of IL-13 induced TARC IC50 [1] | KD Relative to Dupilumab [2] | Kd [2] [pM] | KD Relative to Dupilumab [3] | Kd [3] [nM] | KD Relative to Dupilumab [4] | Kd [4] [nM] | Relative Inhibition of IL-4 induced pSTAT6 IC50 [5] | Relative Inhibition of IL-13 induced pSTAT6 IC50 [5] | Relative Blockade of IL-4 Binding IC50 [6] | Relative Inhibition of IL-4 induced TF-1 Proliferation IC50 [7] | Relative Inhibition of IL-13 induced TF-1 Proliferation IC50 [7] | Relative Blockade of IL-13 Binding IC50 [8]
Construct 13 (mAb422) (antibody, IgG4, V domains shown, VH/VL only) VH: EVQLVESGGGLEQPGGSLRLSCAGSGFTFRDFAMTWVRQAPGKGLEWVSSVSGSGGNTYYADSVKGRFTISRDNSKNTLYLQMNSLRAEDTAVYYCAKDRLSVTVRPRYYGLDVWGQGTTVTVSS VL: DIVMTQSPLSLPVTPGEPASISCRSSQSVLYSIGYNYVDWYLQKSGQSPQLLIYLGNKRASGVPDRFSGSGSGTDFTLKISRVEAEDVGFYYCMQSLTSPYTFGQGTKLEIK | 0.507 relative to dupilumab | 1.01 relative to dupilumab | 0.267 | 0.299 | 0.65 | 0.00737 | 0.02 | 12.6 | 0.415 relative to dupilumab | 0.824 relative to dupilumab | 1.02 relative to dupilumab | 0.675 relative to dupilumab | 0.794 relative to dupilumab | 0.882 relative to dupilumab
Construct 32 (mAb446) (antibody, IgG4, V domains shown, VH/VL only) VH: EVQLVESGGGLEQPGGSLRLSCAGSGFTFRDFAMTWVRQAPGKGLEWVSSVSGDGGNTYYADSVKGRFTISRDNSKNTLYLQMNSLRAEDTAVYYCAKDRLSVTVRPRYYGLDVWGQGTTVTVSS VL: DIVMTQSPLSLPVTPGEPASISCRSSQSLLYSNGYNYLDWYLQKSGQSPQLLIYLSSNRASGVPDRFSGSGSGTDFTLKISRVEAEDVGFYYCMQAFQAPYTFGQGTKLEIK | 4.36 relative to dupilumab | 2.4 relative to dupilumab |  |  | 1.04 | 0.0118 | 1.58 | 993 | 1.68 relative to dupilumab | 4.76 relative to dupilumab | 1.36 relative to dupilumab | 1.74 relative to dupilumab | 2.01 relative to dupilumab | 1.14 relative to dupilumab
Construct 30 (mAb439) (antibody, IgG4, V domains shown, VH/VL only) VH: EVQLVESGGGLEQPGGSLRLSCAGSGFTFRDYAMTWVRQAPGKGLEWVSSISGSGGNTYYADSVKGRFTISRDNSKNTLYLQMNSLRAEDTAVYYCAKDRLSITIRPRYYGLDVWGQGTTVTVSS VL: DIVMTQSPLSLPVTPGEPASISCRSSQSLLYSNRNNYLDWYLQKSGQSPQLLIYSASIRASGVPDRFSGSGSGTDFTLKISRVEAEDVGFYYCMQAFQAPYTFGQGTKLEIK | 0.68 relative to dupilumab | 0.592 relative to dupilumab |  |  | 0.98 | 0.011 | 0.2 | 128 | 1.09 relative to dupilumab | 0.781 relative to dupilumab | 0.863 relative to dupilumab | 0.387 relative to dupilumab | 0.917 relative to dupilumab | 0.958 relative to dupilumab
Construct 45 (mAb494) (antibody, IgG4, V domains shown, VH/VL only) VH: EVQLVESGGGLEQPGGSLRLSCAGSGFTFRDFAMTWVRQAPGKGLEWVSSISGSGDGTYYADSVKGRFTISRDNSKNTLYLQMNSLRAEDTAVYYCAKDRVSITIRPRYYGLDVWGQGTTVTVSS VL: DIVMTQSPLSLPVTPGEPASISCTASQSLLYSIGYNYVDWYLQKSGQSPQLLIYLGNNRATGVPDRFSGSGSGTDFTLKISRVEAEDVGFYYCMQSLQTPYTFGQGTKLEIK | 3.09 relative to dupilumab | 14.5 relative to dupilumab |  |  | 0.96 | 0.0109 | 0.31 | 192 | 1.25 relative to dupilumab | 4.61 relative to dupilumab | 1.08 relative to dupilumab | 1.68 relative to dupilumab | 1.79 relative to dupilumab | 1.01 relative to dupilumab
Construct 43 (mAb482) (antibody, IgG4, V domains shown, VH/VL only) VH: EVQLVESGGGLEQPGGSLRLSCAGSGFTFRDFAMTWVRQAPGKGLEWVSSISGGGGNTYYADSVKGRFTISRDNSKNTLYLQMNSLRAEDTAVYYCAKDRLSIAVRPRYYGLDVWGQGTTVTVSS VL: DIVMTQSPLSLPVTPGEPASISCTSSQSLLYSIGYNYVDWYLQKSGQSPQLLIYLGSKRASGVPDRFSGSGSGTDFTLKISRVEAEDVGFYYCMQSLTSPYTFGQGTKLEIK | 1.56 relative to dupilumab | 2.3 relative to dupilumab |  |  | 0.84 | 0.00943 | 0.24 | 150 | 0.633 relative to dupilumab | 2.29 relative to dupilumab | 1.02 relative to dupilumab | 1.13 relative to dupilumab | 0.941 relative to dupilumab | 1.13 relative to dupilumab
Construct 15 (mAb423) (antibody, IgG4, V domains shown, VH/VL only) VH: EVQLVESGGGLEQPGGSLRLSCAGSGFTFRDFAMTWVRQAPGKGLEWVSSISGSGGNIYYADSVKGRFTISRDNSKNTLYLQMNSLRAEDTAVYYCAKDRLSKTIRPRYYGLDVWGQGTTVTVSS VL: DIVMTQSPLSLPVTPGEPASISCTASQSLLYSIGYNYVDWYLQKSGQSPQLLIYLGNKRASGVPDRFSGSGSGTDFTLKISRVEAEDVGFYYCMQSLTSPYTFGQGTKLEIK | 0.453 relative to dupilumab | 0.35 relative to dupilumab | 0.01 | 0.0109 | 1.21 | 0.0137 | 0.04 | 24.6 | 0.285 relative to dupilumab | 0.468 relative to dupilumab | 0.66 relative to dupilumab | 0.281 relative to dupilumab | 0.71 relative to dupilumab | 0.876 relative to dupilumab
Construct 46 (mAb501) (antibody, IgG4, V domains shown, VH/VL only) VH: EVQLVESGGGLEQPGGSLRLSCAGSGFTFRDSAMTWVRQAPGKGLEWVSSISGSGDGTYYADSVKGRFTISRDNSKNTLYLQMNSLRAEDTAVYYCAKDRLSIYIRPRYYGLDVWGQGTTVTVSS VL: DIVMTQSPLSLPVTPGEPASISCTSSQSLLYSIGYNYVDWYLQKSGQSPQLLIYLGNKRASGVPDRFSGSGSGTDFTLKISRVEAEDVGFYYCMQALQTPYTFGQGTKLEIK | 2.49 relative to dupilumab | 4.66 relative to dupilumab |  |  | 0.97 | 0.011 | 0.36 | 228 | 1.04 relative to dupilumab | 3.6 relative to dupilumab | 1.22 relative to dupilumab | 1.29 relative to dupilumab | 1.28 relative to dupilumab | 1.02 relative to dupilumab
Construct 44 (mAb485) (antibody, IgG4, V domains shown, VH/VL only) VH: EVQLVESGGGLEQPGGSLRLSCAGSGFTFRDFAMTWVRQAPGKGLEWVSSISGSGGNIYYADSVKGRFTISRDNSKNTLYLQMNSLRAEDTAVYYCAKDRLSKTIRPRYYGLDVWGQGTTVTVSS VL: DIVMTQSPLSLPVTPGEPASISCRSTQSLLYSIGKNYVDWYLQKSGQSPQLLIYEGNNRASGVPDRFSGSGSGTDFTLKISRVEAEDVGFYYCMQSLTSPYTFGQGTKLEIK | 2.53 relative to dupilumab | 5.72 relative to dupilumab |  |  | 1.11 | 0.0125 | 2.03 | 1280 | 1.18 relative to dupilumab | 3.76 relative to dupilumab | 1.21 relative to dupilumab | 1.15 relative to dupilumab | 1.29 relative to dupilumab | 1.23 relative to dupilumab
